Assay results: patent US11339213B2, “Methods and compositions for treatment of cancer” (MEREO BIOPHARMA 5, INC., priority 2015, dated 2022)
Numbering of substitutions follows the chain as printed.

Legend:
OMP-PN42 tumors = experiment: OMP-PN42 xenograft, gemcitabine plus nab-paclitaxel with complete DLL4/VEGF inhibition; format: in vivo, NOD-SCID mice
Protocol: FIG. 11 is a graph showing activity of anti-DLL4/VEGF bispecific in combination with gemcitabine plus nab-paclitaxel (ABRAXANE®). OMP-PN42 tumors were implanted in NOD-SCID mice. Tumor-bearing mice (n=10/group) were treated with control Ab, gemcitabine alone (30 mg/kg weekly), gemcitabine plus nab-paclitaxel, or the combination of anti-DLL4/VEGF (305B83, 21R30, B20) and gemcitabine plus nab-paclitaxel. Antibodies were dosed 10 mg/kg, weekly.
In patient-derived xenograft experiments, the stroma and vasculature is comprised of murine cells, whereas the tumor cells are human. Because DLL4 and VEGF are expressed in both tumor cells and in the stroma/vasculature, the previous experiments that were carried out with DLL4 and VEGF antagonists that block signaling of the human, but not murine, proteins and may have underestimated the full anti-tumor effect of blocking these pathways. To address this issue, the effect of simultaneous blockade of DLL4 and VEGF in both human tumor and murine stroma/vasculature cells in our xenograft studies were evaluated. This was done with experiments including surrogate antibodies—anti-mouse DLL4 (21R30) and anti-mouse VEGF (B20) in addition to 305B83 (which blocks human DLL4 and VEGF). Complete DLL4/VEGF inhibition in combination with gemcitabine plus nab-paclitaxel in OMP-PN42 tumors was tested.

[1] = test system: ovarian serous carcinoma tumor model OMP-OV19; experiment: Tumor recurrence after chemotherapy termination, OMP-OV19; format: in vivo, NOD.SCID mice; details: paclitaxel 15 mg/kg with or without antibody once a week for 4 weeks, chemotherapy maintenance 3-4 weeks, monitored up to 2 months after discontinuation
Protocol: FIGS. 7A and 7B are graphs showing delay in tumor recurrence by 305B83+21R30 and B20 following chemotherapy termination. Ovarian OMP-OV19 and pancreatic OMP-PN42-tumor bearing animals were randomized and treatment began when mean tumor volumes reached approximately 100-150 mm^3. NOD. SCID mice were treated with 15 mg/kg paclitaxel in OMP-OV19 and 10 mg/kg gemcitabine plus 30 mg/kg nab-pacltiaxel in OMP-PN42 with or without antibody once a week for 4 weeks, followed by a chemotherapy for 3-4 weeks. Thereafter, treatment was discontinued and tumor growth was monitored up to 2 months.
To determine the effect of simultaneous blockade of DLL4 and VEGF by the bi-specific antibody 305B83 plus 21R30 (anti-mDLL4) and B20 (anti-mVEGF) on tumor recurrence, an ovarian serous carcinoma tumor model OMP-OV19 and a pancreatic adenocarcinoma model OMP-PN42 were treated in combination with standard of care agents (paclitaxel in ovarian cancer and gemcitabine/nab-paclitaxel in pancreatic cancer) for four weeks followed by a chemotherapy maintenance phase for 3-4 weeks. Subsequently, tumor growth was monitored for up to two months following the discontinuation of treatment.

[2] = test system: OMP-PN8 pancreatic tumor cells; experiment: OMP-PN8 pancreatic xenograft, antibodies in combination with gemcitabine; format: in vivo, NOD-SCID mice; details: with gemcitabine 70 mg/kg weekly for four weeks, then antibody maintained, demcizumab, bevacizumab 15 mg/kg, bispecific 30 mg/kg
Protocol: FIG. 9 is a graph showing that DLL4/VEGF bispecific is active in combination with gemcitabine in pancreatic cancer. OMP-PN8 pancreatic tumor cells were injected into NOD-SCID mice. Tumors were allowed to grow for 24 days until they had reached an average tumor volume of 110 mm^3. […] After four weeks of combination treatment, the gemcitabine was discontinued and the antibody treatments were maintained. Gemcitabine was dosed at 70 mg/kg, weekly.
Following four weeks of treatment, the gemcitabine treatment was discontinued and the antibody treatments were maintained.

xenograft tumor models = details: Hoey et al., 2009; U.S. Pat. No. 7,750,124; cited from earlier work
[3] = test system: OMP-PN8 pancreatic tumor cells; experiment: Serial transplantation study of tumor initiating cell frequency, OMP-PN8; format: in vivo; details: four weeks of treatment, 90 tumor cells into 10 new mice, 83 days without treatment
Protocol: FIG. 10 is a graph showing reduction of tumor-initiating cell frequency from anti-DLL4 activity. […] After four weeks of treatment, tumors were harvested, and the human tumor cells in the xenograft were purified. Ninety tumor cells from each treatment group were injected into new cohorts of 10 mice. Tumors were allowed to grow for 83 days without any further treatment. The volumes of the individual mice in the experiment are shown in the graph.
To determine the effect of DLL4 and VEGF inhibition on tumor initiating cell frequency in pancreatic cancer, serial transplantation studies were performed. […] Following four weeks of treatment, the tumors were harvested, and tumor cells from each treatment were implanted into a new set of mice. Tumors were then allowed to grow for 83 days without treatment. In the control group, nine out of ten mice grew large tumors (FIG. 10).

[4] = test system: vasculature-related genes, Notch target genes; experiment: Vasculature density and stromal/vascular and Notch target gene expression in treated xenograft tumors; format: in vivo, mouse; details: human genes in tumors
Protocol: FIGS. 5A-5C are photomicrographs and graphs showing anti-VEGF inhibition of angiogenesis is dominant over anti-DLL4 hyperproliferation in animals receiving 305B83.
These experiments were carried out by including surrogate antibodies—anti-mouse DLL4 (21R30) and anti-mouse VEGF (B20).

OMP-C8 colon tumor cells = experiment: Human-mouse chimera skin graft model, luciferase-labeled OMP-C8 colon tumor growth; format: in vivo, NOD/SCID mice; details: OMP-C8 in human skin graft; 25 mg/kg intraperitoneally once a week; bioluminescence; compared to control antibody
Protocol: Neonatal foreskin graft of about 2 cm^2 was implanted into the lateral trunk of anesthetized NOD/SCID mice. Luciferase-labeled human OMP-C8 colon tumor cells were then injected intradermally into the human skin graft 6 weeks post implant. Treatment was initiated 2 weeks later. Tumor growth was monitored by measurement of bioluminescence with the IVIS-200 Imaging System (Caliper Life Sciences).
To evaluate the effect of the bispecific anti-DLL4/VEGF antibody on tumor growth in a microenvironment composed of human cells, the human-mouse chimera skin graft model, in which human tumor cells are implanted intradermally into the full thickness of human skin previously transplanted onto mice was used.

[5] = Phase 1a trial side effects; format: in vivo, human; details: patients receiving 305B83
Protocol: To manage this side effect, a treatment algorithm was developed. First, if the patient's blood pressure exceeds 140/90, the patient is instructed to phone the principal investigator. The initial goal is to normalize blood pressure in 48-72 hours. Treatment with antihypertensive is to be adjusted daily if the blood pressure is not less than 140/90.

Molecule: Nc1ccn([C@@H]2O[C@H](CO)[C@@H](O)C2(F)F)c(=O)n1 [gemcitabine, reference compound]
- tumor growth under chemotherapy (OMP-PN42 tumors; gemcitabine 30 mg/kg weekly, alone or plus nab-paclitaxel): minimal effect

Molecule: CC(=O)O[C@H]1C(=O)[C@@]2(C)[C@H]([C@H](OC(=O)c3ccccc3)[C@]3(O)C[C@H](OC(=O)[C@H](O)[C@@H](NC(=O)c4ccccc4)c4ccccc4)C(C)=C1C3(C)C)[C@]1(OC(C)=O)CO[C@@H]1C[C@@H]2O [paclitaxel]
- tumor growth during and after chemotherapy [1]: grew continuously during the course of study

Molecule: bevacizumab: humanized anti-VEGF monoclonal antibody [reference compound]
- tumor growth after gemcitabine withdrawal [2]: had no effect

B1: demcizumab: anti-DLL4 antibody, also known as OMP-21M18 or 21M18 (antibody, chains of the INN, looked up, V domains shown)
VH: QVQLVQSGAEVKKPGASVKISCKASGYSFTAYYIHWVKQAPGQGLEWIGYISSYNGATNYNQKFKGRVTFTTDTSTSTAYMELRSLRSDDTAVYYCARDYDYDVGMDYWGQGTLVTVSS
VL: DIVMTQSPDSLAVSLGERATISCRASESVDNYGISFMKWFQQKPGQPPKLLIYAASNQGSGVPDRFSGSGSGTDFTLTISSLQAEDVAVYYCQQSKEVPWTFGGGTKVEIK
- frequency of cancer stem cells (xenograft tumor models): reduce the frequency of cancer stem cells
- tumor growth (xenograft tumor models): inhibit tumor growth
- tumor growth frequency after serial transplantation [3]: tumor growth frequency was reduced
- tumor growth after gemcitabine withdrawal [2]: significantly delayed tumor growth

B2: 305B83: bispecific antibody 219R45-MB-21R83, anti-VEGF/anti-DLL4; blocks human DLL4 and VEGF (antibody, chains of the INN, looked up, V domains shown)
VH: B1 VH with S53N, G56R
VL: B1 VL
VH2: QVQLVQSGAEVKKPGASVKVSCKASGYTFTNYWMHWVRQAPGQGLEWMGDINPSNGRTSYKEKFKRRVTLSVDKSSSTAYMELSSLRSEDTAVYFCTIHYDDKYYPLMDYWGQGTLVTVSS
VL2: B1 VL
- tumor growth, complete DLL4/VEGF inhibition with chemotherapy (OMP-PN42 tumors; 305B83 plus surrogates 21R30 and B20, 10 mg/kg weekly, with gemcitabine plus nab-paclitaxel): complete tumor regression
- Notch target gene expression in tumors [4]: modulated Notch target gene expression in tumors similarly to anti-DLL4
- inhibition of tumor growth (TGI) (OMP-C8 colon tumor cells): 87 % TGI
- side effects observed [5]: development or exacerbation of hypertension in some patients
